Experimental data as given in publication doi:10.1101/2021.12.31.474340.

Target: guanylyl cyclase-A (GC-A), human, stably expressed in QBIHEK293A cells (human) (UniProt P16066)
Assay: radioligand binding

Chain of UniProt P16066 (P16066 33-473): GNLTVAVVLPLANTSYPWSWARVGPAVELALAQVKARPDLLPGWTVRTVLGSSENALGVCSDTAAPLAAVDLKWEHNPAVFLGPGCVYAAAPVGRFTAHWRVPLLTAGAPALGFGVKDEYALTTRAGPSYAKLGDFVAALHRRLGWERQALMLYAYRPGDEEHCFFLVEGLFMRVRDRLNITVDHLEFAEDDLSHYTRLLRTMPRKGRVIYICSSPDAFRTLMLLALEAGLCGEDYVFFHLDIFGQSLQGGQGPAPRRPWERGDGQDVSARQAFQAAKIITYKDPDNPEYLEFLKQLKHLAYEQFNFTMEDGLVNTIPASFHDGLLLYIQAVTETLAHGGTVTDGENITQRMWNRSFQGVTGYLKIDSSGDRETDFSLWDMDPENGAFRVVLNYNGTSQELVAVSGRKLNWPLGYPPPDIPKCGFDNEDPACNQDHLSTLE

increase of binding with increasing concentrations of compound #20: 71% | increase of overall binding with 10 uM compound #20 against control: 60%
Substance: ^125I-ANP (peptide)
